Source: article PMC7190278 (Cell, 2020)
Where a chain is given by its changes, count along the chain named. Numbers in names are those of the source. Where no end group is shown, it is not given here. [ ]: non-standard residue; d: D form. pS = N[C@@H](COP(=O)(O)O)C(=O)O

T1: HA-tagged human NPM2 (nucleoplasmin 2) (human, UniProt Q86SE8 1-214)
T1 sequence (looked up): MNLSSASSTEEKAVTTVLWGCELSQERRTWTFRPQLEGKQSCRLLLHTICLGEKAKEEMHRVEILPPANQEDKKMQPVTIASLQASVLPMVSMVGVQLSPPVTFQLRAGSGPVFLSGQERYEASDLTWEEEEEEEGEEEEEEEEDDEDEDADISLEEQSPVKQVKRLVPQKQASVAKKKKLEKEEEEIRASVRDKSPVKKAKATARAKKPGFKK

B1: Protamine 1 (P1), wild type, not phosphorylated (peptide, UniProt P02319 1-51, looked up)
chain: MARYRCCRSKSRSRCRRRRRRCRRRRRRCCRRRRRRCCRRRRSYTIRCKKY
B2: Protamine 1 (P1) S9A S43A double mutant (peptide, UniProt P02319 1-51, looked up)
chain: B1 chain with S9A, S43A
B3: Protamine 1 (P1) S43A, not phosphorylated (peptide, UniProt P02319 1-51, looked up)
chain: B1 chain with S43A
B4: Protamine 1 (P1) S43A, phosphorylated by SRPK1 (peptide, UniProt P02319 1-51, looked up)
chain: MARYRCCR[pS]KSRSRCRRRRRRCRRRRRRCCRRRRRRCCRRRRAYTIRCKKY
modifications: cysteine pairing not given here
B5: Protamine 1 (P1) S9A, not phosphorylated (peptide, UniProt P02319 1-51, looked up)
chain: B1 chain with S9A
B6: Protamine 1 (P1) S9A, phosphorylated by SRPK1 (peptide, UniProt P02319 1-51, looked up)
chain: MARYRCCRAKSRSRCRRRRRRCRRRRRRCCRRRRRRCCRRRR[pS]YTIRCKKY
modifications: cysteine pairing not given here
B7: Protamine 1 (P1), wild type, phosphorylated by SRPK1 (peptide, UniProt P02319 1-51, looked up)
chain: MARYRCCR[pS]KSRSRCRRRRRRCRRRRRRCCRRRRRRCCRRRR[pS]YTIRCKKY
modifications: cysteine pairing not given here

target: T1, HA-tagged human NPM2 (nucleoplasmin 2); assay: pull-down

binding result	Binder
binds	B1
binds	B2
binds	B3
binds	B4
binds	B5
binds	B6
binds	B7

target: HA-tagged human HIRA (human, UniProt P54198 1-1017); assay: pull-down
Sequence (P54198 whole entry): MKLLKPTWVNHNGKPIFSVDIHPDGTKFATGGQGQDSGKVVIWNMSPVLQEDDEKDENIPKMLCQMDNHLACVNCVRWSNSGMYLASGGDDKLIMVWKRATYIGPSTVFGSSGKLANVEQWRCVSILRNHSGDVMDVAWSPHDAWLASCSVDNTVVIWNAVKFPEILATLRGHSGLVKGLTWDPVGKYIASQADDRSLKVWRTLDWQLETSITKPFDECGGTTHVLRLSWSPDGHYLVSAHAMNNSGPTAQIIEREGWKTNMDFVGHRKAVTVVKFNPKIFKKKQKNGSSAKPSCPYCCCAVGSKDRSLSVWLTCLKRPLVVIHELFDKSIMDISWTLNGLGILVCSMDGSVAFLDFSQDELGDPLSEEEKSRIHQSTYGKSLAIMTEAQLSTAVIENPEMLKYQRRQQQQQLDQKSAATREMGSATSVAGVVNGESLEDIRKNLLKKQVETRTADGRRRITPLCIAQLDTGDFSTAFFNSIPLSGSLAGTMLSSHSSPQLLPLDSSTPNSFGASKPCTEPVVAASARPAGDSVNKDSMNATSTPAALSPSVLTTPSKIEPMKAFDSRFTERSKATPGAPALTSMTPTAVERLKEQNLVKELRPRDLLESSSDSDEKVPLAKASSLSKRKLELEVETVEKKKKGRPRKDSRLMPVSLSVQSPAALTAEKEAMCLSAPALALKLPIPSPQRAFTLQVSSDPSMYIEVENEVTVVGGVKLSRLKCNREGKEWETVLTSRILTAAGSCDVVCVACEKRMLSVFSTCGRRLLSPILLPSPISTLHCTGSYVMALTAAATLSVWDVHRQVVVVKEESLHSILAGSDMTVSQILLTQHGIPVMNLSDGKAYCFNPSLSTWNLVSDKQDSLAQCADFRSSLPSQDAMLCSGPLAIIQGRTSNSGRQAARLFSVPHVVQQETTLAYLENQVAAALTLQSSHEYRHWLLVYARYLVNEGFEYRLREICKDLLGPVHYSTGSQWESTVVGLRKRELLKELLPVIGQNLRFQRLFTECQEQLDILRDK

binding result	Binder
binds	B4
binds	B6
